Measured values published in patent publication US10597649B2, “Tau protease compositions and methods of use” (Oligomerix, Inc., priority 2011, dated 2020).

B1: TP-81: 81 amino acid truncated tau peptide, 4R2N 260-340 (SEQ ID NO:5) (protein, listed as Homo sapiens)
chain: MIGSTENLKHQPGGGKVQIINKKLDLSNVQSKCGSKDNIKHVPGGGSVQIVYKPVDLSKVTSKCGSLGNIHHKPGGGQVEVK
B2: TP-210: 210-aa fragment of tau protein, amino acids 131-340 of tau 4R2N plus initiating methionine (SEQ ID NO:1) (protein, listed as Homo sapiens)
chain: MSKDGTGSDDKKAKGADGKTKIATPRGAAPPGQKGQANATRIPAKTPPAPKTPPSSGEPPKSGDRSGYSSPGSPGTPGSRSRTPSLPTPPTREPKKVAVVRTPPKSPSSAKSRLQTAPVPMPDLKNVKSKIGSTENLKHQPGGGKVQIINKKLDLSNVQSKCGSKDNIKHVPGGGSVQIVYKPVDLSKVTSKCGSLGNIHHKPGGGQVEVK
B3: TP-99: 99-amino acid fragment of tau 4R2N, amino acids 241-340, plus initiating methionine (SEQ ID NO:3) (protein)
chain: MRLQTAPVPMPDLKNVKSKIGSTENLKHQPGGGKVQIINKKLDLSNVQSKCGSKDNIKHVPGGGSVQIVYKPVDLSKVTSKCGSLGNIHHKPGGGQVEVK
B4: TP-83: 83 amino acid truncated tau peptide, 4R2N 258-340 (SEQ ID NO:4) (protein, listed as Homo sapiens)
chain: MSKIGSTENLKHQPGGGKVQIINKKLDLSNVQSKCGSKDNIKHVPGGGSVQIVYKPVDLSKVTSKCGSLGNIHHKPGGGQVEVK

How the values were obtained:
[1] = Tau protease enzymatic activity of truncated tau peptides (general statement); format: biochemical
tau FRET peptide = assay: FRET assay of tau protease activity; format: biochemical; conditions: 10, 25 or 50 μg oligomerized protein, 2.5 μg FRET peptide, 17 hrs at 37° C.
Description: The FRET assay peptide substrate is composed of nine amino acids surrounding the autoproteolytic cut site after Lys 340 in tau 4R2N with the fluorescent molecule methylcoumarin (MCA) at the amino terminus and the fluorescence quenching molecule dinitrophenol (DNP) at the C-terminus using an additional Lys at the C-terminus to conjugate it to the peptide: MCA-[…]-{Lys(DNP} (SEQ ID NO:18). The concept is that when tau protease cuts the peptide the quench is dissociated from the fluor such that there is a detectable increase in the fluorescence signal in the assay. This assay can be used to monitor tau protease activity to screen small molecule compounds, peptides or antibodies that modulate tau protease activity. This assay can also be used to characterize enzyme kinetics and optimize the buffer conditions for tau protease. […]
A FRET assay was conducted to determine if the Tau 4R2N 260-340 construct has protease activity using the tau FRET peptide described in FIG. 22 and FIG. 23. […] To determine the background values for the wells of the 96-well plate 95 microliter of buffer was added to the wells of a black 96-well Microfluor I plate (ThermoFisher Scientific) and an EnVision plate reader was used to determine signal (as described in FIG. 23). 5 μL of each sample was mixed with the buffer in the wells and the signal was determined. […]

[2] = tested on: Tau 4R2N (amino acids 335-353) peptide substrate; assay: Peptide digest HPLC assay of tau protease activity; format: biochemical, human; conditions: oligomerized truncated tau, 37° C., overnight (TP-210) or 44 hr (TP-99)
Description: N-terminal sequencing of fragments using mass spectrometry identified autoproteolytic cut sites. In particular, cutting at the Lys340-Ser341 (340KS341) cut site occurred readily. Therefore, a 19-amino acid peptide corresponding to amino acids 335G to 353L of tau protein was synthesized that contained the KS cut site (340KS341). The reaction was monitored by reverse-phase high-pressure liquid chromatography (HPLC). […] An asterisk marks a non-specific contaminant that was used as a marker. […] 10 μg of tau peptide 335-353 ([…]) (SEQ ID NO:19) was custom synthesized by Genscript (Piscataway, N.J., USA) and 1 mg was dissolved in 1 mL of buffer (25 mM Tris-HCl pH 7.4). […] 32Karat™ LC-CE System, Beckman Coulter, Inc., (Indianapolis, Ind.)] using a linear gradient of acetonitrile in 0.1% TFA 0-60% acetonitrile on an analytical C18 column (12.5 cm×2.1 mm, 5 μm, (Supelco, Bellefonte, Pa., USA). 30 μg of peptide was incubated without tau protease as a negative control and analyzed with the same method;
Cleavage of the peptide substrate for tau protease, Tau 4R2N (amino acids 335-353) […] (SEQ ID NO.19), was used to monitor activity using reverse-phase HPLC. […] The large peak in the lower trace indicated intact peptide was greatly diminished in the upper trace and replaced with two smaller peaks F1 and F2 that represent fragments generated by TP-210. […]

Row | Molecule | tau protease enzymatic activity [1] | cutting of tau FRET peptide (tau FRET peptide) | protease activity on tau peptide 335-353 (HPLC) [2]
1 | B1 | retain tau protease enzymatic activity | cuts tau FRET peptide | –
2 | B2 | retain tau protease enzymatic activity | – | retained proteolytic activity
3 | B3 | retain tau protease enzymatic activity | – | showed protease activity
4 | B4 | retain tau protease enzymatic activity | – | –
